Where a chain is given by its changes, count along the chain named. In names and notes the source's numbering stands. Where two headings read alike, the source gives them in different places.

The values below come from US20130142788A1 (published 2013).

In assay [1] the target is T1, recombinant mature dimeric myostatin (human and mouse (mature sequences 100% …, UniProt O08689 268-376)).
T1 sequence: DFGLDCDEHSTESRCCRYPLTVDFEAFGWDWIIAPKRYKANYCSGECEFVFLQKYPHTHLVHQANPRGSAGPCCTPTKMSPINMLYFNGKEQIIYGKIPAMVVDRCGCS
Kind of assay: cell-based or functional assay.

The target of another assay is T2, Fc R 2a His polymorphism (UniProt P12318 34-217, limits assumed).
T2 construct: also called FcγRIIa His
T2 sequence (looked up): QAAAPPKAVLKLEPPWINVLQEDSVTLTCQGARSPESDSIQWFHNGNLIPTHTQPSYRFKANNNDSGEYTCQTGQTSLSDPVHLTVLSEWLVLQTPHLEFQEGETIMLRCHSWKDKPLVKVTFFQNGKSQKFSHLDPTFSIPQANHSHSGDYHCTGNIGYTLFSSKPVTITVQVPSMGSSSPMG
Kind of assay: ProteOn XPR36 SPR, antibody immobilised, receptor 8-2048 nM, equilibrium model. How it is done:
(§1) Binding analysis to Fc R5 and C1q was carried out using the ProteOn XPR36. The test antibodies (H8L5 and Fc-disabled H8L5) were immobilised on a GLC biosensor chip by primary amine coupling. The Fc Rs were used at 2048 nM, 512 nM, 128 nM, 32 nM and 8 nM, while C1q was used at 512 nM, 128 nM, 32 nM, 8 nM and 2 nM. A buffer injection (i.e. 0 nM) was used to double reference the binding sensorgrams. Due to the nature of the interaction (i.e. fast on/fast-off) regeneration was not required and the binding sensorgrams returned to baseline by use of a 20 min dissociation time and subsequent buffer injections. The data was fitted to the Equilibrium model inherent to the PrateOn's analysis software, using a global R-max for each receptor group and for C1q binding (i.e. Fc R 2aHis and Arg polymorphisms were analysed together and Fc R3aPhe and Val polymorphisms were analysed together, while C1q was analysed separately).

The next assay concerns the target T3, Fc R 2a Arg polymorphism (UniProt P12318 34-217, limits assumed).
T3 construct: also called FcγRIIa Arg
T3 sequence (looked up): T2 sequence (looked up) with H134R
Described as above. On the procedure: as §1

In another assay the target is T4, Fc R3a Val polymorphism (UniProt P08637 17-208, limits assumed).
T4 construct: also called FcγRIIIa Val
The description is as above. How it is done:
as §1

A further assay addresses T5, Fc R3a Phe polymorphism (UniProt P08637 17-208, limits assumed).
T5 construct: also called FcγRIIIa Phe
The description is as above. On the procedure: as §1

Assay [2] concerns the target T1, recombinant mature dimeric myostatin. Kind of assay: cell-based or functional assay. The source holds these as a separate data set.
For assay [3] the target is unchanged. In words: cell-based or functional assay. This is another data set of the same source.
Assay [4] has the same target. In words: BIAcore T100 SPR, antibody captured on protein A, myostatin analyte, all curves 1:1 model. How it is done: (§2) The affinity of 10B3 mouse parental and 10B3C for recombinant myostatin was assessed by BIAcore™ (surface plasmon resonance) analysis. Analysis was carried out by the use of a capture surface: anti-mouse IgG was coupled to a C1 chip by primary amine coupling for 10B3 mouse parental; and a protein A surface was created on a C1 chip by primary amine coupling for 10B3 chimera.
(§3) After capture, recombinant myostatin was passed over the surface at 64 nM, 16 nM, 4 nM, 1 nM, 0.25 nM and 0.0625 nM, with a buffer injection (i.e. 0 nM) used for double referencing. There was a regeneration step between each analyte injection, after which the new antibody capture event occurred before the next injection of myostatin. The data was analysed using both the 1:1 model and the Bivalent model inherent to the T100 machines analysis software (see Table 6). Both capture surfaces could be regenerated using 100 mM phosphoric acid, the work was carried out using HBS-EP as the running buffer and using 25° C. as the analysis temperature.

For assay [5] the target is unchanged. In words: BIAcore T100 SPR, antibody captured on protein A, myostatin analyte, all curves Bivalent model. How it is done: as §2, §3
Assay [6] shares this target. In words: Kinexa solution phase affinity. On the procedure:
Kinexa (Sapidyne Instruments) solution phase affinity was used to determine the overall affinity for a range of anti-myostatin molecules. Myostatin beads were prepared either by adsorption (polymethylmethacrylate beads-PMMA) or amine coupling (NHS-activated sepharose beads). The range of anti-myostatin molecules studied necessitated the generation of beads coated with different concentrations of myostatin. For the solution phase portion of the assay, a fixed concentration of antibody was incubated with a broad range of myostatin concentrations and allowed to reach equilibrium by incubation at r.t. for at least 2 h before analysis proceeded. The myostatin beads were then used to determine the amount of free antibody present in the solution phase samples, by means of the free antibody binding to the myostatin bead matrix then detected using an appropriate secondary antibody (either anti-human or anti-mouse depending on the construct being tested) labelled with a fluorescent dye. The binding curves where fitted using the Kinexa Pro analysis software inherent to the machine. Multiple runs using varying starting concentrations of antibody were then compiled and analysed using the n-curve analysis software to give a more accurate determination of affinity.

The target is the same in assay [7]. In words: ActRIIb receptor neutralisation ELISA: antibody pre-incubated with 2 nM biotinylated myostatin, binding to coated ActRIIb. On the procedure:
Recombinant soluble ActRIIb (R&D Systems 339-RBB) was coated in wells of an ELISA plate at 1 μg/ml in carbonate buffer overnight at 4° C. Plates were blocked (see Block solution above at 2.3) and washed following standard ELISA protocols. In parallel, 2 nM biotinylated myostatin (in-house, as described in 1.1, biotinylated material) was pre-incubated with an antibody dilution series consisting of 10B3, 10B3C, and a negative control (IgG1 isotype control) for 2 hours at 37° C. The biotinylated myostatin:antibody reactions were then added to the ActRIIb coated plate for 1 hour at 37° C. Standard wash procedures were followed prior to addition of 1:1000 diluted streptavidin-HRP conjugate (Dako P0397) and a further 37° C. incubation for 1 hour. Plates were again washed and assayed at absorbance 490 nm following OPD substrate (Sigma) and acid stop solution treatment. Inhibition curves and IC50 values for the inhibition of myostatin activity are shown in FIG. 5 and Table 8 respectively.
For orientation: An ELISA detects its analyte on a solid surface through an enzyme-linked reagent.

Assay [8] has the same target. Kind of assay: cell-based or functional assay. The source holds these as a separate data set.
For assay [9] the target is unchanged. In words: ELISA, myostatin coated at 10 ng/well. On the procedure: 10B3 and 10B3 chimera (10B3C) bound myostatin (R&D Systems, 788-G8-010/CF) in a sandwich ELISA. Plates were coated with myostatin at 10 ng/well and blocked with Block solution (PBS, 0.1% TWEEN and 1% BSA). Following washing (PBS, 0.1% TWEEN), antibody was incubated at 37° C. for 2 hours over a dilution series and plates washed again prior to incubation at 37° C. for 1 hour with anti-mouse HRP or anti-human HRP (Dako, P0161 & Sigma, A-8400, respectively). Plates were again washed and OPD substrate (Sigma, P9187) added until colourometric reaction occurred and the reaction stopped by the addition of H₂SO₄.

T4 sequence (P08637 17-208 F176V limits assumed): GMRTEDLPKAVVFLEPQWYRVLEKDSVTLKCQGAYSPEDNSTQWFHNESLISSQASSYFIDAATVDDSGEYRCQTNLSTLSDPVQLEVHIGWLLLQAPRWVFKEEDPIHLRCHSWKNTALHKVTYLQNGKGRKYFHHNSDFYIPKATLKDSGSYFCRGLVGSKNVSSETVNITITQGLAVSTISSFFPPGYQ
T5 sequence (P08637 17-208 limits assumed): as the sequence (P08637 17-208 F176V limits assumed) above, with V160F counted along it

B1: H2L2-C91S_F100G_Y Fc Disabled (antibody, human IgG1, kappa)
heavy: QVQLVQSGAEVKKPGASVKVSCKASGYSFTGYFMHWVRQAPGQGLEWMGNIYPYNGVSNYNQRFKARVTMTTDTSTSTAYMELRSLRSDDTAVYYCARRYYYGTGPADWYYDVWGQGTLVTVSSASTKGPSVFPLAPSSKSTSGGTAALGCLVKDYFPEPVTVSWNSGALTSGVHTFPAVLQSSGSLSSVVTVPSSSLGTQTYICNVNHKPSNTKVDKKVEPKSCDKTHTCPPCPAPELAGAPSVFLFPPKPKDTLMISRTPEVTCVVVDVSHEDPEVKFNWYVDGVEVHNAKTKPREEQYNSYVVSVLTVLHQDWLNGKEYKCKVSNKALPAPIEKTISKAKGQPREPQVYTLPPSRDELTKNQVSLTCLVKGFYPSDIAVEWESNGQPENNYKTTPPVLDSDGSFFKKLTVDKSRWQQGNVFSCSVMHEALHNHYTQKSLSLSPGK
light: DIQMTQSPSSLSASVGDRVTITCKASQDINSYLSWFQQKPGKAPKSLIYRANRLVDGVPSKFSGSGSGTDYTLTISSLQPEDFATYYCLQSDEFPLTFGQGTKLEIKRTVAAPSVFIFPPSDEQLKSGTASVVCLLNNFYPREAKVQWKVDNALQSGNSQESVTEQDSKDSTYSLSSTLTLSKADYEKHKVYACEVTHQGLSSPVTKSFNRGEC
On to B1, for which the “Mean IC50, A204 in vitro activity assay” value in assay [1] worked out at 1.24 nM.

B2: Fc-disabled H8L5 (antibody, IgG1)
heavy: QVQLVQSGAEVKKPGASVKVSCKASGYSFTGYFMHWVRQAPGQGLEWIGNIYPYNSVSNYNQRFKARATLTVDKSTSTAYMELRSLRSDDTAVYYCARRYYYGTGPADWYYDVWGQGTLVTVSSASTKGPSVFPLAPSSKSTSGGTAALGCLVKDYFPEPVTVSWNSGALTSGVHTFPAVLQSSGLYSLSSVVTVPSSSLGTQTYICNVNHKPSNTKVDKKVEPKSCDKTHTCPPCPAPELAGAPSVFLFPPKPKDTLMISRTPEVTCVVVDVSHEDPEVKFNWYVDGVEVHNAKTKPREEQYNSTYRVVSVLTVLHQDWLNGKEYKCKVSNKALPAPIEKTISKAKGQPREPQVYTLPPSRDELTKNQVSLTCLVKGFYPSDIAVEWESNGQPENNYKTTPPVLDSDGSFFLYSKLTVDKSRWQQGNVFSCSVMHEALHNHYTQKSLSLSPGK
light: B1 light with S46T
notes: hIgG1 Fc disabled (L235A, G237A, EU numbering); also called H8L5 disabled; H8disabledL5; copies: 2 + 2
For the molecule B2, the binding result in the assay with Fc R 2a His polymorphism, in the assay with Fc R 2a Arg polymorphism, with Fc R3a Val polymorphism and with Fc R3a Phe polymorphism was “binds” in each case.

B3: 10B3 chimera (antibody, human IgG1, V domains shown)
VH: EVQLQQSGPELVKPGASVKISCKASGYSFTGYFMHWVKQSHGNILDWIGNIYPYNGVSNYNQRFKAKATLTVDKSSSTAYMELRSLTSEDSAVYYCARRYYYGTGPADWYFDVWGTGTLVTVSS
VL: DIKMTQSPSSMYASLRERVTITCKASQDINSYLSWFQQKPGKSPKTLIYRANRLVDGVPSRFSGSGSGQDYSLTISSLEYEDMGIYYCLQCDEFPLTFGAGTKLELKR
notes: 10B3 variable regions on human IgG1/k wild type constant regions; also called HCLC; HcLc
As a reminder, the IC50 is the concentration that gives 50% inhibition. As a reminder, the EC50 is the concentration giving half of the maximal effect. B3: the “Mean IC50, A204 in vitro activity assay” value was determined as 3.57 nM in [2] and 3.53 nM in assay [8]. Moreover, the “IC50, myostatin responsive reporter gene assay (A204 cells, luciferase)” value in assay [3] came out at 6.2 nM. Also, the Kd in assay [4] amounted to 0.088 nM; in assay [5] it was 3.6 nM; in assay [6] it was 0.548 nM. Further, the IC50 in [7] came out at 0.138 µg/mL. The EC50 in assay [9] worked out at 0.049 µg/mL.

B4: H2L2-C91S (antibody, IgG1, V domains shown)
VH: QVQLVQSGAEVKKPGASVKVSCKASGYSFTGYFMHWVRQAPGQGLEWMGNIYPYNGVSNYNQRFKARVTMTTDTSTSTAYMELRSLRSDDTAVYYCARRYYYGTGPADWYFDVWGQGTLVTVSS
VL: DIQMTQSPSSLSASVGDRVTITCKASQDINSYLSWFQQKPGKAPKSLIYRANRLVDGVPSKFSGSGSGTDYTLTISSLQPEDFATYYCLQSDEFPLTFGQGTKLEIKR
Consider B4, for which the “Mean IC50, A204 in vitro activity assay” value was 4.08 nM in [1] and 5.14 nM in [8].
